US20210253725A1 (BIONTECH, published 2021)
Residue numbers refer to the chain shown, from its start. Names and notes keep the numbering of the source.

B1: P018.S.12.A.B06 (antibody, V domains shown)
VH: QEQLEESGGGLVQPEGSLTLTCTASGFSFSYYWMCWVRQAPGKGLEWSACIGTGSGSTYYATWAKGRFTISKTSSTTVTLQMTSLTAADTATYFCARDWGIYSSDAYYMDYFNLWGPGTLVTVSS
VL: AFELTQTPASVEAAVGGTVTIKCQASQSIGSYLAWYQQKPGQPPKPLIYEASKLASGVSSRFKGSGSGTQFTLTISGVESADAATYYCQQGGISTNVQNAFGGGTEVVVK
notes: V regions on human Ig constant parts; also called AB134_60
B2: P018.S.12.A.B03 (antibody, V domains shown)
VH: QSLEESGGRLVTPGTPLTLICTVSGIDLSSGAMGWVRQAPGKGLEYIGYIYTGSGTTSYASWVNGRFTISMTSTTVDLKITSPTTEDTATYFCARDAASSYWGHFTLWGQGTLVTVSS
VL: DIVMTQTPASVEAAVGGTVTIKCQASENIYSSLAWYQQKPGQPPKLLIYRTSTLASGVPSRFKGSGSGTQFTLTISDLESDDAATYYCQSYYHNSGGGYDYGFGGGTEVVAK
notes: V regions on human Ig constant parts; also called AB134_58
B3: P018.S.11.A.E02 (antibody, V domains shown)
VH: QEQLEESGGDLVKPEGSLTLTCTASGFSFNVDYYMCWVRQAPGKGLEWIACIYVGSEGSTYYASWAKGRFTISKTSSTTVTLQMTSLTAADTATYFCARHYAGYAGYNYATDYYFTLWGPGTLVTVSS
VL: DIVMTQTPSSVSAGVGGTVTINCQASQSVTNFLSWYQQKPGQPPKLLIYGASTLASGVPSRFKGSGSGTEFTLTISGMKAEDVATYYCQSGYYSATFGAGTKVEIK
notes: V regions on human Ig constant parts; also called AB134_33
B4: P018.S.12.A.A06 (antibody, V domains shown)
VH: QSVEESGGRLVTPGTPLTLTCTVSGFSLSSFAMTWVRQAPGKGLEWIGIISSSGTTYYASWAKGRFTISKTSTTVDLRITSPTTEDTATYFCASHYDDYGDSDALDPWGPGTLVTVSS
VL: AAVMTQTPSPVSAAVGGTVTINCQASEDIYSNLAWFQQKPGQPPKLLIYRASTLASGVPSRFSGSGSGTEFTLTISGLQSDDAATYYCLGVDRHISDRAFGGGTEVVVK
notes: V regions on human Ig constant parts; also called AB134_55
B5: P018.S.12.A.F06 (antibody, V domains shown)
VH: QSLEESGGDLVKPGGTLTLTCKASGIDFNNYYVCWVRQAPGKGLEWVGCIYTGSGSTYYASWAKGRFTITRSSSTTVTLQMTSLTAADTATYFCARPEFYDTYGYAGYGYATPNYFNFWGPGTLVTVSS
VL: AAVLTQTPSPVSAAVGGTVTIKCQASQSVYNNNLLSWYQQKPGQPPKLLMYDASNLASGVPDRFSGSGSGTQFTLTISDLESDDAATYYCLGGYDDDADYNAFGGGTEVVVA
notes: V regions on human Ig constant parts; also called AB134_82
B6: P018.S.12.A.E01 (antibody, V domains shown)
VH: QSVEESGGRLVTPGGSLTLTCTVSGIDLSSADMSWVRQAPGEGLEYIGWINNVGSAYYASWAKGRFSISKTSSTTVDLKVTSLTTEDTATYFCVRGYWLDLWGQGTLVTVSS
VL: AAVLTQTPSPVSAAVGGTVSISCQSSVNVYNNNYLAWFQQKPGQPPKLLIYAASTLPSGVSSRFSGNGSGTEFTLTISGVQSDDAATYYCVGYYSSTDDNGFGGGTEVVVK
notes: V regions on human Ig constant parts; also called AB134_72
B7: P018.S.12.A.B02 (antibody, V domains shown)
VH: QSLEESGGRLVTPGTPLTLTCTVSGIDLSKYTMTWVRQAPGKGLEWIGLISFGGRGGTWYANWAKGRFTISKTSTTVDLRIASPTTEDTATYFCARARYSGTNYDYFNLWGQGTLVTVSS
VL: AYDMTQTPASVEVAVGGTVTIKCQASQSISNWLAWYQQKPGQRPKLLIYGASNLESGVPSRFKGSGSGTDFTLTISDLESADAATYYCQQGYSSDGVTNAFGGGTEVVVE
notes: V regions on human Ig constant parts; also called AB134_57
B8: P018.S.11.A.A03 (antibody, V domains shown)
VH: QSLEESGGDLVKPGASLTLPCTASGFTLSGYWMCWVRQAPGKGLEWIGCIYNGDGSTYYASWAKGRFTISKTSSTTVTLQMTSLTAADTATYFCARDSNGWGAYGLWGPGTLVTVSS
VL: AIEMTQTPSSVSAAVGGTVTIDCQASQSIGSYLSWYQQKPGQPPKLLIYDASDLASGVPSRFSGSGSGTEFTLTISGVQSDDAATYYCQGGYYSSATEIAFGGGTEVVVK
notes: V regions on human Ig constant parts; also called AB134_20
B9: P018.S.11.A.G05 (antibody, V domains shown)
VH: QSLEESGGDLVKPGASLTLTCAASGFSLNNWVMCWVRQAPGKGLEWIACIDIVGSGSTHYATWAKGRFTMSKASSITVTLQMTSLTAADTATYFCARGVNGDGNLNLWGPGTLVTVSS
VL: DVVMTQTPASVSEPVGGAVTIKCQASETISNYLAWYQQKPGQRPKLLIYGASNLESGVPSRFKGSGSGTEFTLTISDLESADAATYYCQCTYVGDSYTAFGGGTEVVVK
notes: V regions on human Ig constant parts; also called AB134_45
B10: P018.S.12.A.E03 (antibody, V domains shown)
VH: QSVEESGGRLVTPGTPLTLTCTVAGIDLNICGMSWVRQAPGKGLEWIGIIYPSDYTYYATWAKGRFTISKTSTTVDLKITSPTTEDTATYFCARGLGHAWSHFDLWGQGTLVTVSS
VL: AFELTQTPASVSEPVGGTVTIKCQASQSIGSDLAWYQQKPGQPPKLLIYSVSNLPSGVSSRFKGSRSGTEYTLTISDLESADAATYYCQSYYGTITTGYIAFGGGTEVVVK
notes: V regions on human Ig constant parts; also called AB134_74
B11: P018.S.12.A.F02 (antibody, V domains shown)
VH: QSLEESGGRLVTPGTPLTLTCTASGFSLIKSHINWVRQAPGKGLEWVGGIAYDDNTYYANWAKGRFTISKTSTTVDLRITSPTTADTATYFCAREDSSGWGSFNLWGQGTLVTVSS
VL: AQVLTQTPSSVSAAVGGTVTISCQSSQSVYATNQLSWFQQKSGQPPKRLIYSASTLASGVSSRFKGSGSGTQFTLTISGVQSDDAATYYCQGAYDCSGGDCRAFGGGTEVVVK
notes: V regions on human Ig constant parts; also called AB134_78
B12: P018.S.04.A.C06 (antibody, V domains shown)
VH: QSVEESGGRLVTPGTPQTLTCTVSGFSLSSYAMSWVRQAPGKGLEWIGIISSSGSTYYASWAKGRFTISKTSTTVDLKITSPTTEDTATYFCARDAYPSYSPFGYYFTLWGQGTLVTVSS
VL: AIKMTQTPASVSAAVGGTVSINCQASEDIYNYLAWYQQKPGQPPKLLIYDASDLASGVPSRFKGSGSGKQFTLTISGVQSDDAATYYCQHGYFTYSGENAFGGGTEVVVK
notes: V regions on human Ig constant parts; also called AB134_8
B13: P018.S.11.A.A04 (antibody, V domains shown)
VH: QSVEESGGRLVTPGTPLTLTCTVSGFSLSSYAMGWVRQAPGKGLEYIGVISTSANTYYATWAKGRFTISKTSTTVDLRITSPTTEDTATYFCARVVGLYDSYGDVDATYDAFDPWGPGTLVTVSS
VL: AQVLTQTASPVSAAVGDTVTINCQSSQSVYNNNLLSWYQQKPGQPPKLLVYDASNLASGVPHRFSGSGSGTQFTLTISGVQSDDAATYYCLGGYDDDADIYAFGGGTEVVVK
notes: V regions on human Ig constant parts; also called AB134_21
B14: P018.S.11.A.H05 (antibody, V domains shown)
VH: QQRLVESGGGLVKPGASLTLTCTASGFSFSSGYDMCWVRQAPGKGLEWVGCIDTATDTIYYASWAPGRFTISKTSSTMVTLQMTSLTAADTATYFCARSVGGVDYAIDLWGPGTLVTVSS
VL: AYDMTQTPVSVEVPVGGTVTIKCQASQNIGSRLVWYQQKPGQSPKFLIYYASNLASGVSSRFKGSGSGTQFTLTISDVQSDNAATYYCQQTYSYSDVDDTFGGGTEVVVK
notes: V regions on human Ig constant parts; also called AB134_48
B15: P018.S.12.A.D03 (antibody, V domains shown)
VH: B14 VH with Q2E, A55G, D57G, K73E, V103Y
VL: B14 VL with V9A
notes: V regions on human Ig constant parts; also called AB134_68
B16: P018.S.11.A.D06 (antibody, V domains shown)
VH: QSLEESGGRLVKPGESLTLTCTVSEFSLSSNAMGWVRQAPGKGLEFIGLIDSGGDAYYATWAKGRFTISKTSSTTVDLKATSLTTEDTATYFCGRGYWFPRLGLWGQGTLVTVSS
VL: AAVLTQTPSPVSAAVGGTVSINCQSTKNVYLNNWLGWFQKKPGQPPKLLIYDASTLASGVPSRFKGSGSGTEFTLTISDLESDDAATYYCAGAYDDNSDHTFGGGTEVVVK
notes: V regions on human Ig constant parts; also called AB134_32

Each binder was assayed against T1, CD134 expressed on the cell surface of HT1080_OX40 cells (human, UniProt P43489 29-277) (assay: cell-based or functional assay).
T1 sequence (looked up): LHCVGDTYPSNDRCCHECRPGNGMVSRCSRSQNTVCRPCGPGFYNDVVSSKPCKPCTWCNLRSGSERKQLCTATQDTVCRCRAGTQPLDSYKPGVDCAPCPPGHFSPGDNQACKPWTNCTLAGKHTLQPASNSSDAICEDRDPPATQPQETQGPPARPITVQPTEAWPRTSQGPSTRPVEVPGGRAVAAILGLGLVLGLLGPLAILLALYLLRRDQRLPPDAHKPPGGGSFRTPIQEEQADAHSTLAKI
Note: test concentration or dose not given here.

Binder	Functional assay Cross-linked by F(ab′)2 fragment IL-8 [abs. corr.]	Functional assay IL-8 [abs. corr.]
B1	2.07	1.84
B2	2.05	1.07
B3	2.04	0.214
B4	2.04	0.062
B5	2.05	0.374
B6	2.04	0.439
B7	1.97	-0.167
B8	2.01	1.38
B9	2.05	0.031
B10	2	0.461
B11	1.99	0.185
B12	2	0.538
B13	1.99	0.533
B14	2.01	1.21
B15	1.83	0.707
B16	1.97	0.019

The binders below were run against T1, CD134 expressed on the cell surface of … (assay: HT1080_OX40 cells, imaging).

Binder	Cellular binding assay [RFU]
B1	451
B2	446
B3	525
B4	515
B5	500
B6	463
B7	560
B8	459
B9	531
B10	482
B11	549
B12	458
B13	582
B14	478
B15	559
B16	130

The binders below were run against T2, CD134 protein (His-tagged, Sino Biological Inc. 10481-H08H) (human, UniProt P43489 29-216) (assay: ELISA, coated His-tagged CD134).
T2 construct: bought protein coated on ELISA plates; also called OX40; TNFRSF4; not shown: His tag
T2 sequence (looked up): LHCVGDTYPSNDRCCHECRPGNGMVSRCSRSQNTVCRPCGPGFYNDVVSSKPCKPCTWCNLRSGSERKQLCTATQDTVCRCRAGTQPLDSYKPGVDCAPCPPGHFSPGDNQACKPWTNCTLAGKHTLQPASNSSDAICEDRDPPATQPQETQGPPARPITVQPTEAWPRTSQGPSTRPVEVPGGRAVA

Binder	ELISA [abs. corr.]
B1	1.4
B2	1.18
B3	2.65
B4	1.61
B5	1.65
B6	2.55
B7	2.21
B8	1.93
B9	2.36
B10	2.04
B11	2.07
B12	2.5
B13	2.1
B14	1.69
B15	1.34
B16	0.744
